No end group written: not given here.
Assays:
[1] = biological target: HER2 fragment V529-P625, C-terminal GSH6 tag (UniProt P04626); assay: SPR; Biacore T200; biotinylated HER2 fragment V529-P625 immobilised on streptavidin chip (SA); scFv 0.2-5 μM in 50 mM sodium phosphate pH 7.4; triplicate
[2] = biological target: T1, synthetic peptide DATAEEEEDFGEEA corresponding to residues 427-440 of human β-tubulin (Homo sapiens); assay: SPR; Biacore T200; C-terminally biotinylated β-tubulin peptide immobilised on streptavidin chip (SA); scFv 0.375-12 μM in 50 mM sodium phosphate pH 7.4; conditions: both partners purified
T1 construct: also called β-tubulin peptide; source: synthetic peptide (Fmoc chemistry, ABI433A)
T1 chain: DATAEEEEDFGEEA-biotin

[3] = biological target: T2, full length human ITGA4 (antigen CD49, α4 subunit of VLA-4 receptor) (Homo sapiens, UniProt P13612); assay: far-Western, overlay or dot blot; dot blot: 80 ng full length ITGA4 spotted on Immobilon-P; 6 μg/mL scFv in TBS, 1 h, room temperature; detected with HRP-labelled anti-His tag antibody; conditions: both partners purified
T2 construct: integrin alpha-4 (ITGA4, CD49, α4 subunit of VLA-4), human, full length; also called ITG4A; ITGA4 full length

“natalizumab framework-trastuzumab CDRs hybrid scFv, expressed with CyDisCo” was tested, and the Kd [1] was 147 nM.

B1: IgA1 scFv (human), expressed with CyDisCo (scFv, V domains shown)
VH: EVQLVESGGGLVQPGGSLKLSCAASGFTLSGSNVHWVRQASGKGLEWVGRIKRNAESDATAYAASMRGRLTISRDDSKNTAFLQMNSLKSDDTAMYYCVIRGDVYNRQWGQGTLVTVSS
VL: DIVMTQSPLSLSVTPGEPASISCRSSQSLLRRDGHNDLEWYLQKPGQSPQPLIYLGSTRASGVPDRFSGSGSGTDFTLKIIRVEAEDAGTYYCMQNKQTPLTFGQGTRLEIK
notes: VL of the anti-beta-tubulin IgA1; linker, printed as (Gly4Ser)3; VH of the anti-beta-tubulin IgA1; Expected mass 27342 Da with disulfide bonds; also called IgA1-IgA1; parental scFv IgA1; source: E. coli BW25113 cytoplasm, co-expressed with CyDisCo (Erv1p and PDI), purified (IMAC, desalted)
With B1 the Kd [2] was 3560 nM.

B2: natalizumab scFv (IgG4 humanized), expressed without CyDisCo (scFv, V domains shown)
VH: QVQLVQSGAEVKKPGASVKVSCKASGFNIKDTYIHWVRQAPGQRLEWMGRIDPANGYTKYDPKFQGRVTITADTSASTAYMELSSLRSEDEAVYYCAREGYYGNYGVYAMDYWGQGTLVTVSS
VL: DIQMTQSPSSLSASVGDRVTITCKTSQDINKYMAWYQQTPGKAPRLLIHYTSALQPGIPSRFSGSGSGRDYTFTISSLQPEDIATYYCLQYDNLWTFGQGTKVEIK
notes: VL of natalizumab, as the VL of m5; linker, printed as (Gly4Ser)3; VH of natalizumab, as the VH of m5; expected mass 27755 Da); also called natalizumab - CyDisCo; Tysabri scFv; source: E. coli BW25113 cytoplasm, without CyDisCo (control vector pAG82), purified (IMAC, desalted); not shown: GSH6, C-terminal, kept
B2: binds [3].

B3: natalizumab scFv (IgG4 humanized), expressed with CyDisCo (scFv, V domains shown)
VH: B2 VH
VL: B2 VL
notes: VL of natalizumab; linker, printed as (Gly4Ser)3; VH of natalizumab; expected mass 27751 Da); also called natalizumab-natalizumab; Tysabri scFv; source: E. coli BW25113 cytoplasm, co-expressed with CyDisCo (Erv1p and PDI), purified (IMAC, desalted); not shown: GSH6, C-terminal, kept
B3: binds [3].

— publication PMC5734687 (PLoS ONE, 2017)
